Data taken from patent US6428985 (REGENTS OF THE UNIVERSITY OF MICHIGAN, dated 2002).

T1: mIL-10R1 on Ba/F3-mIL-10R1 cells (mouse pro-B cell line stably transfected with mIL-10R1) (murine, UniProt Q61727 17-575)
T1 construct: whole, on cells; also called IL-10 receptor
T1 sequence (looked up): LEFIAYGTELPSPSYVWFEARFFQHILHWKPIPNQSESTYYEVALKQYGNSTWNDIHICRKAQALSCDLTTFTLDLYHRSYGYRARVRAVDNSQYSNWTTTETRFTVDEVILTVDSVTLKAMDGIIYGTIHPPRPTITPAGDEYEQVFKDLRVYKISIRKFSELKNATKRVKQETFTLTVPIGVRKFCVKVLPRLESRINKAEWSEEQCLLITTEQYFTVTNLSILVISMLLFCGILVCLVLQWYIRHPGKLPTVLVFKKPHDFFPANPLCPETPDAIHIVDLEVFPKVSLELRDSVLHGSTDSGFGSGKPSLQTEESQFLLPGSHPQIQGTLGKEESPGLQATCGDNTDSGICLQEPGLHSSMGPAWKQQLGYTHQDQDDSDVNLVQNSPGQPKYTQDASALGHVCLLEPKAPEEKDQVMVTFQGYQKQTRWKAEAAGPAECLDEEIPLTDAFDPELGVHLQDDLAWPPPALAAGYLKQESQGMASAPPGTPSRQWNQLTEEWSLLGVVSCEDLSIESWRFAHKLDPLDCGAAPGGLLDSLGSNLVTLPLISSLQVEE

B1: purified hIL-10-myc-his (human IL-10 with carboxyl terminal myc-his tag) (ligand)
chain: SPGQGTQSENSCTHFPGNLPNMLRDLRDAFSRVKTFFQMKDQLDNLLLKESLLEDFKGYLGCQALSEMIQFYLEEVMPQAENQDPDIKAHVNSLGENLKTLRLRLRRCHRFLPCENKSKAVEQVKNAFNKLQEKGIYKAMSEFDIFINYIEAYMTMKIRN
notes: also called C-terminal myc-his tagged hIL-10; not shown: C-terminal myc-his tag from the pcDNA3.1-myc-his vector
B2: hIL-10 with amino terminal FLAG tag (pFLAGCMV-1 construct) (ligand, not shown: small tags and cut ends)
chain: SPGQGTQSENSCTHFPGNLPNMLRDLRDAFSRVKTFFQMKDQLDNLLLKESLLEDFKGYLGCQALSEMIQFYLEEVMPQAENQDPDIKAHVNSLGENLKTLRLRLRRCHRFLPCENKSKAVEQVKNAFNKLQEKGIYKAMSEFDIFINYIEAYMTMKIRN
notes: also called amino terminal FLAG construct of hIL-10
B3: purified hIL-10(I87A)-myc-his (human IL-10 with the single mutation, carboxyl terminal myc-his tag) (ligand)
chain: SPGQGTQSENSCTHFPGNLPNMLRDLRDAFSRVKTFFQMKDQLDNLLLKESLLEDFKGYLGCQALSEMIQFYLEEVMPQAENQDPDAKAHVNSLGENLKTLRLRLRRCHRFLPCENKSKAVEQVKNAFNKLQEKGIYKAMSEFDIFINYIEAYMTMKIRN
notes: also called hIL-10(187A); Ala87 version of IL-10; not shown: C-terminal myc-his tag from the pcDNA3.1-myc-his vector

Experiments:
[1] = target: T1, mIL-10R1 on Ba/F3-mIL-10R1 cells (mouse …); test: flow cytometry on Ba/F3-mIL-10R1 cells, 100 ng purified IL-10-myc-his, 4° C. for 2 h
[2] = target: T1, mIL-10R1 on Ba/F3-mIL-10R1 cells (mouse …); test: flow cytometry on Ba/F3-mIL-10R1 cells

Row | Binder | binding result [1] | binding result [2]
1 | B1 | binds | 
2 | B2 |  | binds
3 | B3 | binds | 
